Assay results published in PMC3988316 (Cell, 2013).
No end group written: not given here. cellulose‑PEG membrane = cellulose-PEG membrane solid support to which peptides are linked at the C-terminus as "dots"

molecular target: N-terminally flag-tagged full-length S. cerevisiae Ubr1 (S. cerevisiae, UniProt P19812 1-1950); experiment: peptide or protein array
Sequence (P19812 whole entry): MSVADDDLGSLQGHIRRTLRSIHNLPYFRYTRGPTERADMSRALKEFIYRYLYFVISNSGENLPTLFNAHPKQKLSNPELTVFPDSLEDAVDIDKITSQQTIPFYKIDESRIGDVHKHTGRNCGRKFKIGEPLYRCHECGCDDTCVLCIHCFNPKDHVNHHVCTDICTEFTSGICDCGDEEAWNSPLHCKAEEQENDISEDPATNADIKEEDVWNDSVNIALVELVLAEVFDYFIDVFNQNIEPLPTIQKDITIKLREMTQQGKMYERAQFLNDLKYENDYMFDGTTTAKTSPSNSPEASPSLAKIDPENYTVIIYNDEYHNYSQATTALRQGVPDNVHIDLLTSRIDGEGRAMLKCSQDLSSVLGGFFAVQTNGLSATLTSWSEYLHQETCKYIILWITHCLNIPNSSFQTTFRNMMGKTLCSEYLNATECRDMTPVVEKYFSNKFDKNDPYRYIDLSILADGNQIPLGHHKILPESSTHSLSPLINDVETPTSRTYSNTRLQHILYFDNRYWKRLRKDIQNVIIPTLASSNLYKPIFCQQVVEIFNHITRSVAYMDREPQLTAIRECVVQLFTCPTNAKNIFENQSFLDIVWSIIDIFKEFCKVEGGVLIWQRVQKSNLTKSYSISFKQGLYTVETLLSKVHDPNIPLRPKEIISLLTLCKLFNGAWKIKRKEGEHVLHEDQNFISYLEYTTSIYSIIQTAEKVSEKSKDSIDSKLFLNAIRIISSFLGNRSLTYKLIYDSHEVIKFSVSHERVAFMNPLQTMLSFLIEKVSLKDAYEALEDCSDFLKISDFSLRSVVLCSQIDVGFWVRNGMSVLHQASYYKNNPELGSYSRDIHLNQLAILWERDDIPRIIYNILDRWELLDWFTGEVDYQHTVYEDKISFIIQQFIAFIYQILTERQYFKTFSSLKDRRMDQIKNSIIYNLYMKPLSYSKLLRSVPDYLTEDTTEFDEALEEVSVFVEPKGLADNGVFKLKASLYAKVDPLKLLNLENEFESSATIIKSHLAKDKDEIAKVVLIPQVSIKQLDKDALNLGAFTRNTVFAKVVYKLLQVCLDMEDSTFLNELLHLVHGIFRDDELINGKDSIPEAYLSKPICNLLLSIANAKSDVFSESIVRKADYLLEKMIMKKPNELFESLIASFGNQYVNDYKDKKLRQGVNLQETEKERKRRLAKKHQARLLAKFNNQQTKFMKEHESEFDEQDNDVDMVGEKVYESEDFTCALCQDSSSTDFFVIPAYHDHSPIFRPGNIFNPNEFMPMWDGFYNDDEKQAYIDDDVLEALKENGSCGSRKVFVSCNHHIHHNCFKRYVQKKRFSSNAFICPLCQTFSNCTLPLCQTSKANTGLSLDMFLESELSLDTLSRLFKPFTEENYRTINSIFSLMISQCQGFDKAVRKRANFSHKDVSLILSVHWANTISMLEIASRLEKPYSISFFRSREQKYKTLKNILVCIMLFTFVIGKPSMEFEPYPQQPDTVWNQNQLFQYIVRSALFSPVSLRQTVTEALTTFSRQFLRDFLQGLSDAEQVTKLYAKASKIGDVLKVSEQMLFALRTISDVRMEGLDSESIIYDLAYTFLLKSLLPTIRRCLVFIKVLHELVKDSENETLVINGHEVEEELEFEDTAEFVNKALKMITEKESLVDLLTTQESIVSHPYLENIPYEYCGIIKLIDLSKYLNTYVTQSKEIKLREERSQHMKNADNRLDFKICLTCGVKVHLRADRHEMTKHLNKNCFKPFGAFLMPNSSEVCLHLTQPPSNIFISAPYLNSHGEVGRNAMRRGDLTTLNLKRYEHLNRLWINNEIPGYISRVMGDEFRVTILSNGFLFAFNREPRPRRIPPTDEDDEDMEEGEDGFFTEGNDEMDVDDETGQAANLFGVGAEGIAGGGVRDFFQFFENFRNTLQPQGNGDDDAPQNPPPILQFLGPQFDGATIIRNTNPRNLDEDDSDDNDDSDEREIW

| Binder | binding result |
| --- | --- |
| MYGSGAWLLP-{cellulose‑PEG membrane} [Met-Tyr-e^K(3–10) peptide] | binds |
| MAGSGAWLLP-{cellulose‑PEG membrane} [Met-Ala-e^K(3–10) peptide] | binds |
| MVGSGAWLLP-{cellulose‑PEG membrane} [Met-Val-e^K(3–10) peptide] | binds |
| MWGSGAWLLP-{cellulose‑PEG membrane} [Met-Trp-e^K(3–10) peptide] | binds |

Next, values leading:

| binding result | Binder |
| --- | --- |
| binds | MFGSGAWLLP-{cellulose‑PEG membrane} [Met-Phe-e^K(3–10) peptide] |
| binds | MIGSGAWLLP-{cellulose‑PEG membrane} [Met-Ile-e^K(3–10) peptide] |
